From patent US20030203869A1

Key:
[1] = target: purified HLA-A11 molecules (human); assay: inhibition of binding of a labeled reference peptide to purified HLA-A11
[2] = target: purified HLA-A2.1 molecules (human); assay: inhibition of binding of a labeled reference peptide to purified HLA-A2.1; details: remark: other sources report otherwise

| Binder | IC50 [1] [nM] | IC50 [2] [nM] |
| --- | --- | --- |
| TVYYGVPVWK (modifications not checked) [HIV Env 49 (HIV env 49-58) CTL epitope peptide …] | 4 | – |
| WLSLLVPFV (modifications not checked) [HBV Env 335 (HBV env 335-343) CTL epitope peptide …] | – | 5 |
